Literature values, collected in PMC3575173.

Molecular target: TAMRA-TRTK-12 (UniProt P52907)

In the case of S100B (from UniProt P04271), the Kd is listed as 1190 nM.
